The target of experiment [1] is human polyclonal IgG (Gammanorm) (human). The experiment is described as follows: SPR; ratio of remaining capacity to reference Zvar1.
The target of experiment [2] is IgG1 monoclonal antibody (probe molecule in the Biacore kinetics). The experiment can be described thus: SPR (Biacore), ligand on CM5 chip, IgG1 mAb as probe. A general note: SPR reads the build-up and loss of mass on a sensor chip optically.
The target is the same in experiment [3]. The experiment is described as follows: SPR (Biacore), ligand on CM5 chip, IgG1 mAb as probe; exponent read as 10^-5.
In experiment [4] the target is human polyclonal IgG (Gammanorm) (human). The experiment is described as follows: SPR, ligand on chip; signal left after 96-100 CIP cycles 0.5 M NaOH.
Experiment [5] has the same target. The experiment is described as follows: SPR, ligand on chip; CIP cycles 0.5 M NaOH.
Experiment [6] has the same target. The experiment is described as follows: SPR; ratio to reference (the text names Zvar6).
The target is the same in experiment [7]. The experiment can be described thus: pH 6-3 citrate gradient elution; hexamer SEQ ID NO 33 on agarose; peak 2.
The target is the same in experiment [8]. The experiment can be described thus: pH 6-3 citrate gradient elution; hexamer SEQ ID NO 33 on agarose; peak 1.

Turning to “Zvar(Q9A,N11E,Q40V,A42K,N43A,L44I)1 (designed binder)”, the Capacity relative to reference in experiment [1] came out at 1.4. Further, in experiment [2], the Kd was 1.07 nM and the kon is 410000 M⁻¹ s⁻¹. This substance also displayed a koff in experiment [3] of 0.000437 s⁻¹. The same substance came in with a Capacity after 96-100 cycles in experiment [4] of 66%.
In turn, “Zvar(Q9A,N11E,Q40V,A42K,N43A,L44I)6 (designed binder)” registered a Remaining capacity 100 cycles (%) in experiment [5] of 87%. The Capacity relative to ref. 100 cycles in experiment [6] was determined as 1.3. The Elution pH was found to be 3.81 pH in experiment [7] and 4.24 pH in experiment [8].

As a reminder, the Kd is a measure of binding affinity in units of concentration. Higher therefore signals weaker binding. One may read the kon as the rate constant with which the complex forms. Low values mean slow association, high ones fast association. By koff is commonly meant the first-order rate constant of dissociation.

Source of the values: patent publication US20200283475A1.
